This is an account of results in the supplement of paper PMC9170038.

The subject of the data set is MS2 coat protein. Put plainly: apparent KD of MS2 coat protein; higher = weaker reporter binding. To be noted: Eterna round: R107. The procedure:
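RNA-MaP round R107: designed RNA switches with theophylline, tryptophan, arginine or FMN aptamers are transcribed on-chip within common flanks. They are titrated with SNAP-549-labelled MS2 coat protein in RNA-MaP buffer (100 mM Tris pH 7.5, 80 mM KCl, 4 mM MgCl2), without ligand or with the indicated ligand. Median apparent KD per design.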

The mark [1] stands for this setting: input ligand: theophylline 20 uM.
Setting [2] is: input ligand: theophylline 2 mM.
Setting [3] is: input ligand: tryptophan 2.4 mM.

Take “AAGACAUGAGGAUCACCCAUGUCGUCUACACGAGGACCGGUACGGCCGCCACUCGUUUGCCAAUGAGCGCAUGCGGCCUGGGUAU [Exclusion Tryp A GF3]”: the “apparent KD of MS2 coat protein” value (input ligand: arginine 13.2 mM) worked out at 13.2 nM, the “apparent KD of MS2 coat protein” value under setting [1] is 17.9 nM and the “apparent KD of MS2 coat protein” value under setting [2] was 16.3 nM.

“AAGACUGGACAUAAGUCCAGUCAACCUGAAGGAGCGGGUGGGUGCCCAGGUAGGUCGCGGGAACAUGAGGAUCACCCAUGUAUAA [ArgAS 5 #BothOrNeither #OpenEnded]”: the “apparent KD of MS2 coat protein” value runs as follows: (input ligand: arginine 13.2 mM) 17.4 nM; (input ligand: none) 25.8 nM; under setting [1], 16.9 nM; under setting [2], 31.9 nM; under setting [3], 24.6 nM.

In the case of “AAGGUAUCACAGACAUGGGUGUACUGUGAUACCAGCUAGGAAACUAGCCCUUGGCAGCACAUGAGGAUCACCCAUGUAAGAAUAA [(T)'-(M)'-(T1)-(T2)-(M1)-(M2)_Design4_2/19/17]”, the “apparent KD of MS2 coat protein” value (input ligand: arginine 13.2 mM) stood at 34 nM, the “apparent KD of MS2 coat protein” value under setting [1] amounted to 94.9 nM and the “apparent KD of MS2 coat protein” value under setting [3] was determined as 53.8 nM.

As for “AAGGUGAUCCGUGAUACCAGCUCAACAUGAGGAUCACCCAUGUAAGCCUGGAAACAGGCGAGCCCUUGGCAGCACGGUUGCCAAG [(M)'-(Theo1)-(Ms2)-(Theo2)-(M'')-(T2)'_Design1]”, the “apparent KD of MS2 coat protein” value reads like this: (input ligand: arginine 13.2 mM) 38.6 nM; (input ligand: none) 165 nM; under setting [1], 138 nM; under setting [2], 25.4 nM; under setting [3], 163 nM.

As for “AAGUGGCACGGAAGGAGCGAGUUUACCUAGAUAACAUGAGGAUCACCCAUGUAUAAUGGGACUCAGGUAGGUCGCCGCUGUCACU [#30 Same State - Arginine B]”, the “apparent KD of MS2 coat protein” value came out at 34.9 nM (input ligand: arginine 13.2 mM); 41.5 nM (input ligand: none); 58.3 nM under setting [1]; 38.6 nM under setting [2]; 41.5 nM under setting [3].

In the case of “AAUAACAUGAGGAUCACCCAUGUAAAAGAUACCAGAGUGAUGAUCCUCCCUUGGCAGCUUAAAACGCUAUUGAUUACAAUAGCGA [Mat - Same State Theophlline A - Mod of Eli - D4]”, the “apparent KD of MS2 coat protein” value was 38.3 nM (input ligand: arginine 13.2 mM), 99 nM under setting [1] and 45.3 nM under setting [3].

“AAUAAGCAGCUGCAAGGUGAUCCUGCAGAUACCAGCUAGGAAACUAGCCCUUGGCAGCUGCAACAUGAGGAUCACCCAUGUAAUA [(T)'-(M)'-(T1)-(T2)-(M1)-(M2)_Design6]”: the “apparent KD of MS2 coat protein” value reads like this: (input ligand: arginine 13.2 mM) 26.2 nM; under setting [1], 61.7 nM; under setting [3], 30.7 nM.

Consider “AAUAAGUAUCUGCUAGGUGAUCCAGCAGAUACCAGCUAGGAAACUAGCCCUUGGCAGCUGCAACAUGAGGAUCACCCAUGUAAUA [(T)'-(M)'-(T1)-(T2)-(M1)-(M2)_Design3]”, for which the “apparent KD of MS2 coat protein” value by setting is: (input ligand: arginine 13.2 mM) 98.7 nM; under setting [1], 193 nM; under setting [3], 407 nM.

Regarding “AAUAAUAAGGCGGCCGCCACUAAACAUGAGGAUCACCCAUGUCUCGCGGGCUUGCGUUGGGAAAGUAGGACCGGGCCAAUAAUAA [Exclusion - Tryptophan B (Freestyle 8)]”, the “apparent KD of MS2 coat protein” value (input ligand: arginine 13.2 mM) came out at 16 nM; the “apparent KD of MS2 coat protein” value (input ligand: none) was determined as 15.7 nM; the “apparent KD of MS2 coat protein” value under setting [1] was found to be 20.6 nM; the “apparent KD of MS2 coat protein” value under setting [2] was 14.7 nM; the “apparent KD of MS2 coat protein” value under setting [3] turned out to be 14.4 nM.

“AAUAAUAAGGCGGCCGCCACUACACAUGAGGAUCACCCAUGUCUCGCGGGCUUGCGUUGGGAAAGUAGGACCGGGCCAAUAAUAA [Exclusion - Tryptophan B (Freestyle 9)]”: the “apparent KD of MS2 coat protein” value (input ligand: arginine 13.2 mM) stood at 15.3 nM; the “apparent KD of MS2 coat protein” value (input ligand: none) is 21.5 nM; the “apparent KD of MS2 coat protein” value under setting [1] came out at 26 nM; the “apparent KD of MS2 coat protein” value under setting [2] is 27.3 nM; the “apparent KD of MS2 coat protein” value under setting [3] was found to be 15.7 nM.

Take “AAUACAGCUACGGCCGCCACUUUAACUUGGUAUGGGUCCUUCACAAACAUGAGGAUCACCCAUGUAAGGACCGGGUAGCCUUGUU [theeternabot_exclusion_MS2_Trp_B_35]”: the “apparent KD of MS2 coat protein” value reads like this: (input ligand: arginine 13.2 mM) 21.6 nM; under setting [1], 28.4 nM; under setting [2], 24 nM.

For “AAUACCGGUCCUCGAAGCAUGGGUGAUCAACGAGGACCGGUACGGCCGCCACUCGAUAACAUGAGGAUCACCCAUGUAAUAAUAA [|T'-M'-Trp-Ms2|_Design5]”, the “apparent KD of MS2 coat protein” value (input ligand: arginine 13.2 mM) came out at 34.4 nM; the “apparent KD of MS2 coat protein” value (input ligand: none) turned out to be 313 nM; the “apparent KD of MS2 coat protein” value under setting [1] was 395 nM; the “apparent KD of MS2 coat protein” value under setting [2] is 552 nM; the “apparent KD of MS2 coat protein” value under setting [3] was determined as 569 nM.

For the sequence “AAUACCGGUCCUCGAGGGUGAUCCUCAUGACGAGGACCGGUACGGCCGCCACUCGAUAACAUGAGGAUCACCCAUGUAAUCGAGU [|T'-M'-Trp-Ms2|_Design7b]”, the “apparent KD of MS2 coat protein” value is 34.1 nM (input ligand: arginine 13.2 mM), 70.4 nM under setting [1] and 72.4 nM under setting [2].

On to “AAUGGGCGAGUAGAGCAUAAUUUCCACUCCCGAGGACCGGUACGGCCGCCACUCGUUCGCUCACAUGAGGAUCACCCAUGUGGUC [theeternabot_exclusion_MS2_Trp_A_17]”, for which the “apparent KD of MS2 coat protein” value by setting is: (input ligand: arginine 13.2 mM) 24.7 nM; under setting [1], 32.3 nM; under setting [2], 40.3 nM.

Take “AAUGGUCGUACUGGAAUGGUGAUCCUCAAACGAGGACCGGUACGGCCGCCACUCGAUAACAUGAGGAUCACCCAUGUAAUAAUAA [|T'-M'-Trp-Ms2|_Design13b]”: the “apparent KD of MS2 coat protein” value (input ligand: arginine 13.2 mM) amounted to 26 nM, the “apparent KD of MS2 coat protein” value under setting [1] worked out at 67.4 nM and the “apparent KD of MS2 coat protein” value under setting [2] amounted to 55.2 nM.

Turning to “AAUGUAUGCCACAUGAGGAUCACCCAUGUGCGAGGACCGGUACGGCCGCCACUCGGUCGGUGGUUAAUGAAGAUAUACAAUAAUG [XTryp A #12]”, the “apparent KD of MS2 coat protein” value (input ligand: arginine 13.2 mM) stood at 10.6 nM, the “apparent KD of MS2 coat protein” value under setting [1] was 20.9 nM and the “apparent KD of MS2 coat protein” value under setting [2] turned out to be 13.5 nM.

As for “AAUGUAUGGCACAUGAGGAUCACCCAUGUGCGAGGACCGGUACGGCCGCCACUCGGUCCUGGGAUCUUAAUACUAUACAUUAAUG [XTryp A #19]”, the “apparent KD of MS2 coat protein” value runs as follows: (input ligand: arginine 13.2 mM) 10.3 nM; under setting [1], 15.1 nM; under setting [2], 13.9 nM.

Regarding “AAUGUGAAGGCGGCCGCCACUGAUAAUAGACAUGAGGAUCACCCAUGUAUAAAUCCUCAAUAAGACAGGACCGGGCCAACUACGU [Exclusion Tryptophan B GF 1]”, the “apparent KD of MS2 coat protein” value turned out to be 93 nM (input ligand: arginine 13.2 mM), 114 nM under setting [1] and 136 nM under setting [2].

On to “AAUUAUCAGUCGGCCGCCACUGACACAUGAGGAUCACCCAUGUAACAUGGGUAAAAUUAACUGAACAGGACCGGGACAAAGGCUA [JR_ExcTryptoB_Sub008]”, for which the “apparent KD of MS2 coat protein” value was found to be 179 nM (input ligand: arginine 13.2 mM), 671 nM under setting [1] and 740 nM under setting [2].
